Assay results taken from PMC3328597.

Target: T1, dSLBP P231G RPD (Drosophila, UniProt Q9VAN6 173-276, P231G)
T1 sequence: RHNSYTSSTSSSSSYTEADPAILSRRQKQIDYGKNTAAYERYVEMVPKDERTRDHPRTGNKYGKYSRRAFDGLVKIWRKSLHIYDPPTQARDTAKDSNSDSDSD
Experiment: NMR

B1: SL28-CG (structured_RNA)
RNA: GGCCAAAGGCCCUUUUCAGGGCCACCCA
B1: binds.
